Experimental data as given in article PMC10296741, “One Single Tube Reaction of Aptasensor-Based Magnetic Sensing System for Selective Fluorescent Detection of VEGF in Plasma”.

Molecular target: VEGF-165 (UniProt P15692-4 27-191)
Experiment: magnetic bead capture with fluorescent complementary probe (fluorescence rebound); 50 uM KCl, 1 mM Mg2+, pH 7.0; linear 0.2-2.0 ng/mL VEGF in plasma, LOD 0.0445 ng/mL; 1X TBSE: 10 mM Tris, 0.05 mM EDTA, 100 mM NaCl, 1 mM MgCl2, 50 uM KCl, pH 7.0; 0.1 uM aptamer (95 C 3 min, cooled), 25 C, 45 min
Conditions: protein: commercial; chain copies: 2; label: 5'-biotin; G-quadruplex

Sequence of VEGF-165 (P15692 other isoform, or with tags, fused parts or gaps): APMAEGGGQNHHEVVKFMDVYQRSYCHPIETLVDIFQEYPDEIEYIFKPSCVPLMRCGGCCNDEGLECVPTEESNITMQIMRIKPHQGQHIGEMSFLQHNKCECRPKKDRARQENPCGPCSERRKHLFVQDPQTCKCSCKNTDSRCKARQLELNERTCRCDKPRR

TGTGGGGGTGGACGGGCCGGGTAGA (structured_DNA) [VEGF aptamer (APT)]
binding result: binds
